The text below walks through data of patent US20240343814A1.

Assay [1] addresses Recombinant human his-tagged IGF 1R extracellular domain protein (human) (UniProt P08069). The assay can be described thus: SPR, captured IgG, IGF-1R ECD-his analyte, dissociation pH 7.4.
Assay [2] shares this target. Put plainly: SPR, captured IgG, IGF-1R ECD-his analyte, dissociation pH 6. (In general: SPR reads the build-up and loss of mass on a sensor chip optically.)
The target is the same in assay [3]. The assay can be described thus: SPR, captured IgG, IGF-1R ECD-his analyte, dissociation pH 6; dissociation at pH 6.
For assay [4] the target is unchanged. Put plainly: SPR, captured IgG, IGF-1R ECD-his analyte, dissociation pH 7.4; dissociation at pH 7.4.

B1: VRDN-02500 (antibody, human IgG1, kappa, V domains shown)
VH: EVQLVQSGGGLVKPGGSLRLSCAASGFTFSSFAMHWVRQAPGKGLEWISVIDTRGATYYADSVKGRFTISRDNAKNSLYLQMNSLRAEDTAVYYCARLGNFYYGMDVWGQGTTVTVSS
VL: EIVLTQSPGTLSVSPGERATLSCRASQSIGSSLHWYQQKPGQAPRLLIKYASQSLSGIPDRFSGSGSGTDFTLTISRLEPEDFAVYYCHQSSRLPHTFGQGTKVEIKR
The Kd is the free concentration of one partner at which half of the binding sites on the other are occupied at equilibrium, for simple one-to-one binding. Usually koff stands for the rate constant with which the complex falls apart. As usually defined, the kon is a measure of how fast the partners come together. In the case of B1, in assay [1], the Kd stood at 0.626 nM, the koff was 3.89e-05 s⁻¹ and the kon was 62100 M⁻¹ s⁻¹. In assay [2], the Kd was below 0.0161 nM and the kon is 47500 M⁻¹ s⁻¹. Moreover, in assay [3], the koff was below 1e-06 s⁻¹.

B2: VRDN-02515 (antibody, V domains shown)
VH: EVQLVQSGGGLVKPGGSLRLSCAASGFTFSSFAMHWVRQAPGKGLEWISVIDTRGAHYYADSVKGRFTISRDNAKNSLYLQMNSLRAEDTAVYYCARLGNFYYGMDVWGQGTTVTVSS
VL: EIVLTQSPGTLSVSPGERATLSCRASQSIGSSLHWYQQKPGQAPRLLIKYASQSLSGIPDRFSGSGSGTDFTLTISRLEPEDFAVYYCHQSSRLPHTFGQGTKVEIK
In the case of B2, in assay [1], the Kd is 0.571 nM, the koff was determined as 5.82e-05 s⁻¹ and the kon is 102000 M⁻¹ s⁻¹. Moreover, in assay [2], the Kd was 0.692 nM, the koff came out at 6.92e-05 s⁻¹ and the kon amounted to 100000 M⁻¹ s⁻¹.

B3: VRDN-02513 (antibody, V domains shown)
VH: EVQLVQSGGGLVKPGGSLRLSCAASGFTFSSFAMHWVRQAPGKGLEWISVIDTRHATYYADSVKGRFTISRDNAKNSLYLQMNSLRAEDTAVYYCARLGNFYYGMDVWGQGTTVTVSS
VL: EIVLTQSPGTLSVSPGERATLSCRASQSIGSSLHWYQQKPGQAPRLLIKYASQSLSGIPDRFSGSGSGTDFTLTISRLEPEDFAVYYCHQSSRLPHTFGQGTKVEIK
Take B3: in assay [1], the Kd is 1.06 nM, the koff amounted to 5.09e-05 s⁻¹ and the kon was 48200 M⁻¹ s⁻¹. In addition, in assay [2], the Kd was determined as 0.0322 nM, the koff turned out to be 1e-06 s⁻¹ and the kon came out at 31100 M⁻¹ s⁻¹.

B4: VRDN-02514 (antibody, V domains shown)
VH: EVQLVQSGGGLVKPGGSLRLSCAASGFTFSSFAMHWVRQAPGKGLEWISVIDTRGHTYYADSVKGRFTISRDNAKNSLYLQMNSLRAEDTAVYYCARLGNFYYGMDVWGQGTTVTVSS
VL: EIVLTQSPGTLSVSPGERATLSCRASQSIGSSLHWYQQKPGQAPRLLIKYASQSLSGIPDRFSGSGSGTDFTLTISRLEPEDFAVYYCHQSSRLPHTFGQGTKVEIK
With B4, in assay [1], the Kd is below 0.00926 nM and the kon amounted to 108000 M⁻¹ s⁻¹. Besides, in assay [2], the Kd came to 0.0283 nM, the koff stood at 1e-06 s⁻¹ and the kon is 35300 M⁻¹ s⁻¹. The koff in assay [4] was below 1e-06 s⁻¹.

B5: VRDN-02526 (antibody, V domains shown)
VH: EVQLVQSGGGLVKPGGSLRLSCAASGFTFSSFAMHWVRQAPGKGLEWISVIDTRGATYYADSVKGRFTISRDNAKNSLYLQMNSLRAEDTAVYYCARLGNFYYGMHVWGQGTTVTVSS
VL: EIVLTQSPGTLSVSPGERATLSCRASQSIGSSLHWYQQKPGQAPRLLIKYASQSLSGIPDRFSGSGSGTDFTLTISRLEPEDFAVYYCHQSSRLPHTFGQGTKVEIK
Regarding B5, in assay [1], the Kd was 0.00543 nM, the koff came to 1e-06 s⁻¹ and the kon was 184000 M⁻¹ s⁻¹. Besides, in assay [2], the Kd is below 0.0273 nM and the kon was found to be 36600 M⁻¹ s⁻¹. In addition, the koff in assay [3] was below 1e-06 s⁻¹.
